According to paper PMC10397247:
Where two headings read alike, the source gives them in different places.

Assays:
4H310-AA = molecular target: T1, 4H310-AA; assay: two-hybrid library CCmax;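 also: natural log of median RNA to DNA barcode read ratio; higher means stronger binding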
T1 chain: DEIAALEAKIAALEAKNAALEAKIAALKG

4H3120-AA = molecular target: T2, 4H3120-AA; assay: two-hybrid library CCmax; details: mean of both orientations;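 also: natural log of median RNA to DNA barcode read ratio; higher means stronger binding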
T2 chain: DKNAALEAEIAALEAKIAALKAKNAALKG

4H3130-AA = molecular target: T3, 4H3130-AA; assay: two-hybrid library CCmax; details: mean of both orientations;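 also: natural log of median RNA to DNA barcode read ratio; higher means stronger binding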
T3 chain: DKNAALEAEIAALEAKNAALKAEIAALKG

4H3165-AA = molecular target: T4, 4H3165-AA; assay: two-hybrid library CCmax; details: mean of both orientations;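 also: natural log of median RNA to DNA barcode read ratio; higher means stronger binding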
T4 chain: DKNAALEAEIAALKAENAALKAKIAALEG

4H3381-AA = molecular target: T5, 4H3381-AA; assay: two-hybrid library CCmax; details: mean of both orientations;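 also: natural log of median RNA to DNA barcode read ratio; higher means stronger binding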
T5 chain: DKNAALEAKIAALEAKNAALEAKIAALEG

4H3395-AA = molecular target: T6, 4H3395-AA; assay: two-hybrid library CCmax; details: mean of both orientations;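 also: natural log of median RNA to DNA barcode read ratio; higher means stronger binding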
T6 chain: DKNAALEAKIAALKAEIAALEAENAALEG

4H3410-AA = molecular target: T7, 4H3410-AA; assay: two-hybrid library CCmax; details: mean of both orientations
T7 chain: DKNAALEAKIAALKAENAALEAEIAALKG

4H3590-AA = molecular target: T8, 4H3590-AA; assay: two-hybrid library CCmax; details: mean of both orientations
T8 chain: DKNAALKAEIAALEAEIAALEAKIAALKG

4H3697-AA = molecular target: T9, 4H3697-AA; assay: two-hybrid library CCmax; details: mean of both orientations
T9 chain: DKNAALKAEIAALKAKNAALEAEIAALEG

4H3753-AA = molecular target: T10, 4H3753-AA; assay: two-hybrid library CCmax; details: mean of both orientations
T10 chain: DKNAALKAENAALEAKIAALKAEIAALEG

4H3865-AA = molecular target: T11, 4H3865-AA; assay: two-hybrid library CCmax; details: mean of both orientations
T11 chain: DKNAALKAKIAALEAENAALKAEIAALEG

4H458-AA = molecular target: T12, 4H458-AA; assay: two-hybrid library CCmax; details: mean of both orientations
T12 chain: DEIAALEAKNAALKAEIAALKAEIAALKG

4H485-AA = molecular target: T13, 4H485-AA; assay: two-hybrid library CCmax; details: mean of both orientations
T13 chain: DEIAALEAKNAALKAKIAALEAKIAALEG

4H536-AA = molecular target: T14, 4H536-AA; assay: two-hybrid library CCmax; details: mean of both orientations
T14 chain: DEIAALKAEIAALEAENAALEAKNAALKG

4H570-AA = molecular target: T15, 4H570-AA; assay: two-hybrid library CCmax; details: mean of both orientations
T15 chain: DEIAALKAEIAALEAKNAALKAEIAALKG

4H629-AA = molecular target: T16, 4H629-AA; assay: two-hybrid library CCmax; details: mean of both orientations
T16 chain: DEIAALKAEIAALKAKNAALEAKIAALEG

4H710-AA = molecular target: T17, 4H710-AA; assay: two-hybrid library CCmax; details: mean of both orientations
T17 chain: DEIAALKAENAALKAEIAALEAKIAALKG

4H745-AA = molecular target: T18, 4H745-AA; assay: two-hybrid library CCmax; details: mean of both orientations
T18 chain: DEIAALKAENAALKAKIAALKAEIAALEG

4H797-AA = molecular target: T19, 4H797-AA; assay: two-hybrid library CCmax; details: mean of both orientations
T19 chain: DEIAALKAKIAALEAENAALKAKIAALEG

4H850-AA = molecular target: T20, 4H850-AA; assay: two-hybrid library CCmax; details: mean of both orientations
T20 chain: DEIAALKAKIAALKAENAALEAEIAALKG

4H891-AA = molecular target: T21, 4H891-AA; assay: two-hybrid library CCmax; details: mean of both orientations
T21 chain: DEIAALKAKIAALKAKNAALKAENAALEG

4H909-AA = molecular target: T22, 4H909-AA; assay: two-hybrid library CCmax; details: mean of both orientations
T22 chain: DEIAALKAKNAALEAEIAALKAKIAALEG

4H930-AA = molecular target: T23, 4H930-AA; assay: two-hybrid library CCmax; details: mean of both orientations
T23 chain: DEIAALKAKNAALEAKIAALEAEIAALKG

4H94-AA = molecular target: T24, 4H94-AA; assay: two-hybrid library CCmax; details: mean of both orientations
T24 chain: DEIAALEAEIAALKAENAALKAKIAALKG

4H3666-AA = molecular target: T25, 4H3666-AA; assay: two-hybrid library CCmax
T25 chain: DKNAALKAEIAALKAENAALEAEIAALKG

4H3709-AA = molecular target: T26, 4H3709-AA; assay: two-hybrid library CCmax
T26 chain: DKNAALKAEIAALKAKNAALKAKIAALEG

4H391-AA = molecular target: T27, 4H391-AA; assay: two-hybrid library CCmax; details: mean of both orientations
T27 chain: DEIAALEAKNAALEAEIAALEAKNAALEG

4H3920-AA = molecular target: T28, 4H3920-AA; assay: two-hybrid library CCmax; details: mean of both orientations
T28 chain: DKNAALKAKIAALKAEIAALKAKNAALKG

4H3939-AA = molecular target: T29, 4H3939-AA; assay: two-hybrid library CCmax; details: mean of both orientations
T29 chain: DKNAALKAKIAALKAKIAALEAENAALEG

4H428-AA = molecular target: T30, 4H428-AA; assay: two-hybrid library CCmax; details: mean of both orientations
T30 chain: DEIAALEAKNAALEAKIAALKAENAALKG

4H478-AA = molecular target: T31, 4H478-AA; assay: two-hybrid library CCmax; details: mean of both orientations
T31 chain: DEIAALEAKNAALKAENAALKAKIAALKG

4H497-AA = molecular target: T32, 4H497-AA; assay: two-hybrid library CCmax; details: mean of both orientations
T32 chain: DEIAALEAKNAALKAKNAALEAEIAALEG

4H656-AA = molecular target: T33, 4H656-AA; assay: two-hybrid library CCmax; details: mean of both orientations
T33 chain: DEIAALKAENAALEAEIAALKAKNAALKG

4H675-AA = molecular target: T34, 4H675-AA; assay: two-hybrid library CCmax; details: mean of both orientations
T34 chain: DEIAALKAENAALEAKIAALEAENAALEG

4H971-AA = molecular target: T35, 4H971-AA; assay: two-hybrid library CCmax; details: mean of both orientations
T35 chain: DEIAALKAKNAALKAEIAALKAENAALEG

4H72-bH = molecular target: T36, 4H72-bH; assay: two-hybrid library CCNG1
T36 chain: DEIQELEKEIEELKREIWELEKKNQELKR

4H754-bH = molecular target: T37, 4H754-bH; assay: two-hybrid library CCNG1
T37 chain: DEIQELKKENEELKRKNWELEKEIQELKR

4H797-bH = molecular target: T38, 4H797-bH; assay: two-hybrid library CCNG1
T38 chain: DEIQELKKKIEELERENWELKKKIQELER

4H883-bH = molecular target: T39, 4H883-bH; assay: two-hybrid library CCNG1
T39 chain: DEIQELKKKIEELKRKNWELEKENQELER

4H908-bH = molecular target: T40, 4H908-bH; assay: two-hybrid library CCNG1
T40 chain: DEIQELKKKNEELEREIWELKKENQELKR

4H918-bH = molecular target: T41, 4H918-bH; assay: two-hybrid library CCNG1
T41 chain: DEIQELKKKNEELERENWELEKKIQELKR

4H953-bH = molecular target: T42, 4H953-bH; assay: two-hybrid library CCNG1
T42 chain: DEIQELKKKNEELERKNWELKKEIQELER

4H967-bH = molecular target: T43, 4H967-bH; assay: two-hybrid library CCNG1
T43 chain: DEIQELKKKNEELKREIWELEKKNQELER

4H953-bN = molecular target: T44, 4H953-bN; assay: two-hybrid library CCNG1
T44 chain: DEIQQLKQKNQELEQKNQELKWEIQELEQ

4H967-bN = molecular target: T45, 4H967-bN; assay: two-hybrid library CCNG1
T45 chain: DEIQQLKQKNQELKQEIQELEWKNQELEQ

4H968-bN = molecular target: T46, 4H968-bN; assay: two-hybrid library CCNG1
T46 chain: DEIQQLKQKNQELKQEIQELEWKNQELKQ

4H3969-AA = molecular target: T47, 4H3969-AA; assay: two-hybrid library CCmax
T47 chain: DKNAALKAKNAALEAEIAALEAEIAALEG

4H446-AA = molecular target: T48, 4H446-AA; assay: two-hybrid library CCmax; details: mean of both orientations
T48 chain: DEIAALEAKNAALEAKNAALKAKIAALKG

4H464-AA = molecular target: T49, 4H464-AA; assay: two-hybrid library CCmax; details: mean of both orientations
T49 chain: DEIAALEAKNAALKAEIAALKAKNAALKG

4H483-AA = molecular target: T50, 4H483-AA; assay: two-hybrid library CCmax; details: mean of both orientations
T50 chain: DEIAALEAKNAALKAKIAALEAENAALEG

4H63-AA = molecular target: T51, 4H63-AA; assay: two-hybrid library CCmax; details: mean of both orientations
T51 chain: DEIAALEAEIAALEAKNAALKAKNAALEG

B1: 4H310-AA (peptide)
chain: DEIAALEAKIAALEAKNAALEAKIAALKG
- interaction score (4H310-AA): 1.89
- interaction score (4H3120-AA): -1.43
- interaction score (4H3130-AA): -0.0638
- interaction score (4H3165-AA): -1.5
- interaction score (4H3381-AA): 0.757
- interaction score (4H3395-AA): -1.03
- interaction score (4H3410-AA): -0.251
- interaction score (4H3590-AA): -0.923
- interaction score (4H3697-AA): 0.375
- interaction score (4H3753-AA): -1.8
- interaction score (4H3865-AA): 1.13
- interaction score (4H458-AA): 1.7
- interaction score (4H485-AA): -0.778
- interaction score (4H536-AA): -0.922
- interaction score (4H570-AA): 1.97
- interaction score (4H629-AA): -0.767
- interaction score (4H710-AA): -0.577
- interaction score (4H745-AA): -0.998
- interaction score (4H797-AA): -0.563
- interaction score (4H850-AA): 1.33
- interaction score (4H891-AA): -0.168
- interaction score (4H909-AA): -1.39
- interaction score (4H930-AA): -1.11
- interaction score (4H94-AA): -0.904

B2: 4H3666-AA (peptide)
chain: DKNAALKAEIAALKAENAALEAEIAALKG
- interaction score (4H3666-AA): 0.925
- interaction score (4H3709-AA; mean of both orientations): 1.48
- interaction score (4H391-AA): -1.26
- interaction score (4H3920-AA): -1.45
- interaction score (4H3939-AA): -1.61
- interaction score (4H428-AA): -1.27
- interaction score (4H478-AA): 0.407
- interaction score (4H497-AA): -1.84
- interaction score (4H656-AA): 0.306
- interaction score (4H675-AA): -2.19
- interaction score (4H971-AA): 1.3

B3: 4H72-bH (peptide)
chain: DEIQELEKEIEELKREIWELEKKNQELKR
- interaction score (4H72-bH): 0.746
- interaction score (4H754-bH): -0.378
- interaction score (4H797-bH): 0
- interaction score (4H883-bH): 1.69
- interaction score (4H908-bH): 0.614
- interaction score (4H918-bH): 0.163
- interaction score (4H953-bH): 0.653
- interaction score (4H967-bH): 0.0764

B4: 4H3709-AA (peptide)
chain: DKNAALKAEIAALKAKNAALKAKIAALEG
- interaction score (4H3709-AA): 0.066
- interaction score (4H391-AA): -1.04
- interaction score (4H3920-AA): -1.81
- interaction score (4H3939-AA): -2.03
- interaction score (4H428-AA): -2.58
- interaction score (4H478-AA): -0.647
- interaction score (4H497-AA): -1.73
- interaction score (4H656-AA): 0.489
- interaction score (4H675-AA): 1.6
- interaction score (4H971-AA): -1.69

B5: 4H953-bN (peptide)
chain: DEIQQLKQKNQELEQKNQELKWEIQELEQ
- interaction score (4H953-bN): -1.67
- interaction score (4H967-bN): -1.76
- interaction score (4H968-bN): -1.24

B6: 4H3969-AA (peptide)
chain: DKNAALKAKNAALEAEIAALEAEIAALEG
- interaction score (4H3969-AA): -1.61
- interaction score (4H446-AA): 1.05
- interaction score (4H464-AA): -0.91
- interaction score (4H483-AA): -1.99
- interaction score (4H63-AA): -1.93
